Results as given in article PMC3793974, “Solution NMR Structure and Histone Binding of the PHD Domain of Human MLL5” (PLoS ONE, 2013).
Where no end group is shown, it is not given here. Me3 = trimethyl-lysine; Me2 = dimethyl-lysine

T1: PHD domain of human MLL5 (Ser109-Asp188) (human, UniProt Q8IZD2 109-188, 15N-labelled in the NMR titration)
T1 construct: Mixed Lineage Leukemia 5 (MLL5), human, PHD finger, residues 109-188, 80 residues; Cloned into the vector pET28a-MHL (GenBank EF456735 is the vector's id); The tag is detected with anti-His in the peptide array; also called MLL5PHD; MLL5 PHD finger; source: E. coli BL21 (DE3) Codon plus RIL, purified (Ni column, Superdex200, Source 30Q; for NMR 13C/15N-labelled from minimal media, Ni-NTA)
T1 sequence (looked up): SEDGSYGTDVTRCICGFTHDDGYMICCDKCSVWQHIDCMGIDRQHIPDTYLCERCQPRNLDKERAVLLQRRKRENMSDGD


Biological target: T1, PHD domain of human MLL5 (Ser109-Asp188)
Assay: fluorescence polarisation; 40 nM fluorescein-labelled peptide, MLL5PHD titrated (low to high micromolar); 20 mM Tris-HCl pH 7.5, 50 mM NaCl, 0.01% Triton X-100; 384-well plates
Conditions: both partners purified

Kd [µM]	Binder
~16	ARTK(Me3)QTARKSTGGKA (not fully specified (N-terminus); also: fluorescein label, C- or N-terminal (sources disagree)) [H3K4me3 peptide labelled with fluorescein]
~16	ARTK(Me2)QTARKSTGGKA (not fully specified (N-terminus); also: fluorescein label, C- or N-terminal (sources disagree)) [H3K4me2 peptide labelled with fluorescein]
